Reference: the MegaScale stability set (Tsuboyama et al. 2023)

B1: EEHEE_rd4_0469 (parent)
chain: ITIHVNGVTYHFDNPEEAEKFAQKMAKTYQLKMEIHNGEFHME

Variants of: B1
Test: folding stability dG (cDNA display proteolysis); higher = more stable
Details: PBS, room temperature

First: ITIHVNGVTYHFDIPEEAEKFAQKMAKTYQLKMEIHNGEFHME [N14I]
Second: ITIHVNGVTYHFDMPEEAEKFAQKMAKTYQLKMEIHNGEFHME [N14M]
The “folding stability dG” value of the first is higher: 1.22 kcal/mol for the first, 0.98 kcal/mol for the second.

Going from ITIHVNGVTYHFDTPEEAEKFAQKMAKTYQLKMEIHNGEFHME [N14T] to ITIHVNGVTYHFDSPEEAEKFAQKMAKTYQLKMEIHNGEFHME [N14S], the “folding stability dG” value falls from 1.09 kcal/mol to 1.07 kcal/mol.

Compared with ITIHVNGVTYHFDNPEEAFKFAQKMAKTYQLKMEIHNGEFHME [E19F], ITIHVNGVTYHFDNPEEANKFAQKMAKTYQLKMEIHNGEFHME [E19N] is lower in “folding stability dG” value: 1.63 kcal/mol for the first, 1.32 kcal/mol for the second.

First: ITIHVNGVTYHFDNPEEADKFAQKMAKTYQLKMEIHNGEFHME [E19D]
Second: ITIHVNGVTYHFDNPEEAKKFAQKMAKTYQLKMEIHNGEFHME [E19K]
The “folding stability dG” value of the first is lower: 1.07 kcal/mol for the first, 1.27 kcal/mol for the second.

Compared with ITIHVNGVTYHFDNPEEAIKFAQKMAKTYQLKMEIHNGEFHME [E19I], ITIHVNGVTYHFDNPEEARKFAQKMAKTYQLKMEIHNGEFHME [E19R] is lower in “folding stability dG” value: 1.5 kcal/mol for the first, 1.41 kcal/mol for the second.

Compared with ITIHVNGVTYHFDNPEEAVKFAQKMAKTYQLKMEIHNGEFHME [E19V], ITIHVNGVTYHFDNPEEAWKFAQKMAKTYQLKMEIHNGEFHME [E19W] is higher in “folding stability dG” value: 1.47 kcal/mol for the first, 1.82 kcal/mol for the second.

Going from ITIHVNGVTYHFDNPEEASKFAQKMAKTYQLKMEIHNGEFHME [E19S] to ITIHVNGVTYHFDNPEEAAKFAQKMAKTYQLKMEIHNGEFHME [E19A], the “folding stability dG” value rises from 1.16 kcal/mol to 1.35 kcal/mol.

Going from ITIHVNGVTYHFDNPEEALKFAQKMAKTYQLKMEIHNGEFHME [E19L] to ITIHVNGVTYHFDNPEEAQKFAQKMAKTYQLKMEIHNGEFHME [E19Q], the “folding stability dG” value falls from 1.61 kcal/mol to 1.26 kcal/mol.

Going from ITIHVNGVTYHFDNPEEAGKFAQKMAKTYQLKMEIHNGEFHME [E19G] to ITIHVNGVTYHFDNPEEATKFAQKMAKTYQLKMEIHNGEFHME [E19T], the “folding stability dG” value rises from 1.03 kcal/mol to 1.3 kcal/mol.

First: ITIHVNGVTYHFDNPEEAMKFAQKMAKTYQLKMEIHNGEFHME [E19M]
Second: ITIHVNGVTYHFDNPEEAYKFAQKMAKTYQLKMEIHNGEFHME [E19Y]
The “folding stability dG” value of the first is higher: 1.61 kcal/mol for the first, 1.6 kcal/mol for the second.

Compared with ITIHVNGVTYHFDNPEEAHKFAQKMAKTYQLKMEIHNGEFHME [E19H], ITIHVNGVTYHFDNPEEAPKFAQKMAKTYQLKMEIHNGEFHME [E19P] is lower in “folding stability dG” value: 1.38 kcal/mol for the first, -0.375 kcal/mol for the second.

First: ITIHVNGVTYHFDNIEEAEKFAQKMAKTYQLKMEIHNGEFHME [P15I]
Second: ITIHVNGVTYHFDNWEEAEKFAQKMAKTYQLKMEIHNGEFHME [P15W]
The “folding stability dG” value of the first is lower: 1.27 kcal/mol for the first, 1.53 kcal/mol for the second.

First: ITIHVNGVTYHFDNQEEAEKFAQKMAKTYQLKMEIHNGEFHME [P15Q]
Second: ITIHVNGVTYHFDNAEEAEKFAQKMAKTYQLKMEIHNGEFHME [P15A]
The “folding stability dG” value of the first is lower: 1.03 kcal/mol for the first, 1.14 kcal/mol for the second.

Going from ITIHVNGVTYHFDNKEEAEKFAQKMAKTYQLKMEIHNGEFHME [P15K] to ITIHVNGVTYHFDNGEEAEKFAQKMAKTYQLKMEIHNGEFHME [P15G], the “folding stability dG” value falls from 1.17 kcal/mol to 1.04 kcal/mol.

Going from ITIHVNGVTYHFDNDEEAEKFAQKMAKTYQLKMEIHNGEFHME [P15D] to ITIHVNGVTYHFDNNEEAEKFAQKMAKTYQLKMEIHNGEFHME [P15N], the “folding stability dG” value rises from 0.883 kcal/mol to 0.994 kcal/mol.

Compared with ITIHVNGVTYHFDNVEEAEKFAQKMAKTYQLKMEIHNGEFHME [P15V], ITIHVNGVTYHFDNFEEAEKFAQKMAKTYQLKMEIHNGEFHME [P15F] is higher in “folding stability dG” value: 1.21 kcal/mol for the first, 1.39 kcal/mol for the second.

First: ITIHVNGVTYHFDNLEEAEKFAQKMAKTYQLKMEIHNGEFHME [P15L]
Second: ITIHVNGVTYHFDNMEEAEKFAQKMAKTYQLKMEIHNGEFHME [P15M]
The “folding stability dG” value of the first is lower: 1.35 kcal/mol for the first, 1.5 kcal/mol for the second.

Going from ITIHVNGVTYHFDNYEEAEKFAQKMAKTYQLKMEIHNGEFHME [P15Y] to ITIHVNGVTYHFDNTEEAEKFAQKMAKTYQLKMEIHNGEFHME [P15T], the “folding stability dG” value falls from 1.36 kcal/mol to 1.14 kcal/mol.

First: ITIHVNGVTYHFDNHEEAEKFAQKMAKTYQLKMEIHNGEFHME [P15H]
Second: ITIHVNGVTYHFDNSEEAEKFAQKMAKTYQLKMEIHNGEFHME [P15S]
The “folding stability dG” value of the first is higher: 1.13 kcal/mol for the first, 1.1 kcal/mol for the second.

Going from ITIHVNGVTYHFDNREEAEKFAQKMAKTYQLKMEIHNGEFHME [P15R] to ITIHVNGVTYHFDNEEEAEKFAQKMAKTYQLKMEIHNGEFHME [P15E], the “folding stability dG” value falls from 1.34 kcal/mol to 0.979 kcal/mol.

Compared with ITIHVNGVTYHFDNPFEAEKFAQKMAKTYQLKMEIHNGEFHME [E16F], ITIHVNGVTYHFDNPWEAEKFAQKMAKTYQLKMEIHNGEFHME [E16W] is lower in “folding stability dG” value: 1.2 kcal/mol for the first, 1.16 kcal/mol for the second.

First: ITIHVNGVTYHFDNPSEAEKFAQKMAKTYQLKMEIHNGEFHME [E16S]
Second: ITIHVNGVTYHFDNPCEAEKFAQKMAKTYQLKMEIHNGEFHME [E16C]
The “folding stability dG” value of the first is lower: 1.12 kcal/mol for the first, 1.77 kcal/mol for the second.

First: ITIHVNGVTYHFDNPPEAEKFAQKMAKTYQLKMEIHNGEFHME [E16P]
Second: ITIHVNGVTYHFDNPMEAEKFAQKMAKTYQLKMEIHNGEFHME [E16M]
The “folding stability dG” value of the first is lower: 0.698 kcal/mol for the first, 1.15 kcal/mol for the second.

Compared with ITIHVNGVTYHFDNPAEAEKFAQKMAKTYQLKMEIHNGEFHME [E16A], ITIHVNGVTYHFDNPGEAEKFAQKMAKTYQLKMEIHNGEFHME [E16G] is lower in “folding stability dG” value: 1.12 kcal/mol for the first, 1.02 kcal/mol for the second.

Compared with ITIHVNGVTYHFDNPQEAEKFAQKMAKTYQLKMEIHNGEFHME [E16Q], ITIHVNGVTYHFDNPIEAEKFAQKMAKTYQLKMEIHNGEFHME [E16I] is higher in “folding stability dG” value: 1.1 kcal/mol for the first, 1.18 kcal/mol for the second.

Going from ITIHVNGVTYHFDNPVEAEKFAQKMAKTYQLKMEIHNGEFHME [E16V] to ITIHVNGVTYHFDNPHEAEKFAQKMAKTYQLKMEIHNGEFHME [E16H], the “folding stability dG” value falls from 1.18 kcal/mol to 1.14 kcal/mol.

Going from ITIHVNGVTYHFDNPLEAEKFAQKMAKTYQLKMEIHNGEFHME [E16L] to ITIHVNGVTYHFDNPKEAEKFAQKMAKTYQLKMEIHNGEFHME [E16K], the “folding stability dG” value falls from 1.19 kcal/mol to 1.18 kcal/mol.

First: ITIHVNGVTYHFDNPREAEKFAQKMAKTYQLKMEIHNGEFHME [E16R]
Second: ITIHVNGVTYHFDNPTEAEKFAQKMAKTYQLKMEIHNGEFHME [E16T]
The “folding stability dG” value of the first is higher: 1.21 kcal/mol for the first, 1.09 kcal/mol for the second.

First: ITIHVNGVTYHFDNPNEAEKFAQKMAKTYQLKMEIHNGEFHME [E16N]
Second: ITIHVNGVTYHFDNPDEAEKFAQKMAKTYQLKMEIHNGEFHME [E16D]
The “folding stability dG” value of the first is lower: 1.03 kcal/mol for the first, 1.25 kcal/mol for the second.

In the case of ITIHVNGVTYHFDNPYEAEKFAQKMAKTYQLKMEIHNGEFHME [E16Y], the “folding stability dG” value is reported as 1.19 kcal/mol.
